# In the DeepSol protein solubility set:
# Assay: soluble on expression in E. coli; label from the status in PepcDB or PDB records
row,Sequence,soluble on expression in E. coli
1,AHHHHHHGSGVPIGEIIPRKEIELENLYGKKIAIDALNAIYQFLSTIRQKDGTPLMDSKGRITSHLSGLFYRTINLMEAGIKPVYVFDGEPPEFKKKELEKRREAREEAEEKWREALEKGEIEEARKYAQRATRVNEMLIEDAKKLLELMGIPIVQAPSEGEAQAAYMAAKGSVYASASQDYDSLLFGAPRLVRNLTITGKRKLPGKNVYVEIKPELIILEEVLKELKLTREKLIELAILVGTDYNPGGIKGIGLKKALEIVRHSKDPLAKFQKQSDVDLYAIKEFFLNPPVTDNYNLVWRDPDEEGILKFLCDEHDFSEERVKNGLERLKKAIKSGKQSTLESWFKR,soluble
2,MRMGRYFGTSGIREVVNEKLTPELALKVGLALGTYLQEGKVVIGCDTRTSSVMLKNAVISGLLATGIDVIDIGLAPTPLTGFAIRLYNAEAGVTITASHNPPQYNGIKVWDRDGMAYTPDKEHELEKIIESGNFRRVPWNEVGTLKTANPRKEYIEAILREINLKGSYTVVIDAGNGAGSIVSPYLHRELGNRVITLNSDPSGFFVRELEPNKESLSMLEKTVKVLNADIGIAHDGDADRVGVVDENGEFVEYEVMLSLIAGYMLKKYGKGKIVTTVDAGFALDDYIRELGGEVVRTRVGDVAVAEELVKHGGVFGGEPSGTWIMPQWNLTPDGIFASALVLEMIDRLGPIGELAKDVPKYVTLRKKIPCSNELKNKVMNKIADLIPREFSYERIITIDGIRIENDDWWILFRPSGTEPIMRITLEAHTEEMAERLMKKAENLVKSVIKDLSS,soluble
3,MGSDKIHHHHHHMTFMPEKRNADLLFRGFSKTRLMVITLIAVNGPMTVTQLSKVIKTTRSNLYQAIKEMVSDGILVQTRTVSEKNYVEKFYDINTDLFDAIKYGDIRKAIEEMDEDKLRNILYSFLRSASAILSIMAEQVNLSNKDDLDKYVDYVRKNLLIISFSTHSTKDMSKFSSMLSNFFTEIDDDNDEKKDEHLLYIVGFPILNQMGFISKSRHEKLTGDGKE,not soluble
4,MGSDKIHHHHHHMKSVSVRSCKTYNYEEVKLSIEKNLEDIGGIDKFVKKGSKVLIKPNLLMKKKPEEATTTHPMVVKVVCEKLLELNCDITIADSPGGPYNQSSLKSIYKASGIEEVANELGIKLNYDVSDVKIHSEKAHVLKYMDIIKPIVDSDYIINLCKLKTHIMATFTGGTKNLYGCIAGLKKAEIHYRFPTEELFCENVLLDICDYIKPTLTIMDGIVGMEGDGPSAGTTREIGVLLASQNPYAIDVVACKIISLLPNRVATIRGAIKRGYIQEDFSDIEILGEDIKDLIIKNYKIPNVSKDLRLFSVKLPKFLNEPISKLITPKPVVRFQDCIKCGKCKEACPASTIEIGTKGAIIDLSKCIRCYCCHELCPKKAIDVKRNFVFKYVK,not soluble
5,MCSSDSLQLHNVFVYGSFQDPDVINVMLDRTPEIVSATLPGFQRFRLKGRLYPCIVPSEKGEVHGKVLMGVTSDELENLDAVEGNEYERVTVGIVREDNSEKMAVKTYMWINKADPDMFGEWNFEEWKRLHKKKFIETFKKIMECKKKPQGQGNDDISHVLREDQ,soluble
6,QVQLVQSGAEVKKPGSSVKVSCKASGYTFSSNVISWVRQAPGQGLEWMGGVIPIVDIANYAQRFKGRVTITADESTSTTYMELSSLRSEDTAVYYCASTLGLVLDAMDYWGQGTLVTVSSASTKGPSVFPLAPCSRSTSESTAALGCLVKDYFPEPVTVSWNSGALTSGVHTFPAVLQSSGLYSLSSVVTVPSSSLGTKTYTCNVDHKPSNTKVDKRVESKYGPP,soluble
7,MAHHHHHHMSKLIKLDCGVQHYAWGKEAAESYVAKMKGEGNKEGKYAELWVGTHPNCPSKTFSGQNLDDFLKNDNNMSRFVHPKQQADPRFRDTVPFLLKLLSVQTALSIQAHPNKQLAEKLHRENPEKYKDPNHKPELVVALTPFEALCCFRPLKDILEFLESASPLKTLLGPAADVLPGEVEDSEAIKHMMDIVYNTDAKKHAEALQEHAEELRSRGGEMTKEDSVFLRVLYQYPDDMGCWMVYFLNYVQLAPGEGLFLADSEPHAYLFGDSVEIMACSDNVVRAGLTPKWKDVPTLLRMLRYGTDGLERAKFERYRAPEGSEWELQHYSPPREFQDFSLYRIEHRVERQGQTHIKLPTVGLGFCVEGCGIVNGERVRLGECFLVPYGDLKIEAFGDFQIFVASMNYSLHSASHM,soluble
8,MAMVVSSWRDPQDDVAGGNPGGPNPAAQAARGGGGGAGEQQQQAGSGAPHTPQTPGQPGAPATPGTAGDKGQGPPGSGQSQQHIECVVCGDKSSGKHYGQFTCEGCKSFFKRSVRRNLTYTCRANRNCPIDQHHRNQCQYCRLKKCLKVGMRREAVQRGRMPPTQPNPGQYALTNGDPLNGHCYLSGYISLLLRAEPYPTSRYGSQCMQPNNIMGIENICELAARLLFSAVEWARNIPFFPDLQITDQVSLLRLTWSELFVLNAAQCSMPLHVAPLLAAAGLHASPMSADRVVAFMDHIRIFQEQVEKLKALHVDSAEYSCLKAIVLFTSDACGLSDAAHIESLQEKSQCALEEYVRSQYPNQPSRFGKLLLRLPSLRTVSSSVIEQLFFVRLVGKTPIETLIRDMLLSGSSFNWPYMSIQCS,soluble
9,MNTQYLQYVREQLMVATADLSGETKGQLLAWLENAQFDTKNYPRKKQRIWDEETESWITLNNPPIPGKQSLAKGSAIPLVKPVEYSTASWRRAVLSLDEHYKAWLLWNYSENTCWEHQVEITQWGWSAFAAQLDGKKMAGKTQERLRALIWLAAQDVKSELAGREVYQYKELAGLVGVSEKNWSETFTRHWLTMRAIFLRLDQASLLSVSESRSEQVAFNLYALN,not soluble
10,MSDLYVTKEGDMVDAICWRYYAKGQQALAVERVYAANFGLADYGPILKAGITIVLPILPYPKATPVIRIWGSQS,not soluble
11,MGSDKIHHHHHHLTYDEIKKNKEVCECLKKGNENLGVLGFTDHSVAHCTMVAKRAAYILKKFGYSESDIEMVKIAGFMHDIGNVVNRSRHAEYGAILANEILKETDMSLKDRITVVSAIGHHDESTGGATDPISAALIIADKTDVRRNRVRNKAKENFDIHDRVNYAVTDAALKINMDKKVIALNLQIDTKICSMYEYFEIFLGRMMMCRGAAEVLGATFKLTANGSKVL,not soluble
12,ASSNANQAITSENSIKPKGKLQPQMEKYTLTYFNGRGRAEVIRLLFALANVSYEDNRITRDEWKYLKPRTPFGHVPMLNVSGNVLGESHAIELLLGGRFGLLGTNDWEEAKIMAVVLNIDELFQKLIPWTHEKNTTKKAELFRNLSESDVMPFLGRYEKFLKESTTGHIVGNKVSVADLTVFNMLMTLDDEVKLEEYPQLASFVNKIGQMPGIKEWIKKRPKTYF,soluble
13,MGSDKIHHHHHHVDKLLYVAMSGAKQNMNSLAVRANNLANANTDGFKSDLEQARSMQAFGEGLPTRVFSMTENPSANFAAGPIKTTGRDLDIAVKGDGWIAVQAVDGGEAYTRSGSLSFDTSGLLRNDRGNPVMGDAGPIVLPLPIEKVEIAQDGTISVRPLGSTAEVIEEVGRIKLVNPGNQNLMRGEDGLFRQLSGVNAPADPNVAVESGAIEGSNVNAVDEMVSLIDLQRQFEMQVKMMKTAEEMDQASSSLMRIS,not soluble
14,FRVERSQPASQPLTYESGPDEVRAWLEAKAFSPRIVENLGILTGPQLFSLNKEELKKVCGEEGVRVYSQLTMQKAFLEKQQSGSEL,soluble
15,GSHMPLSSENKQKLQKQVEFYFSDVNVQRDIFLKGKMAENAEGFVSLETLLTFKRVNSVTTDVKEVVEAIRPSEKLVLSEDGLMVRRRDPLP,soluble
16,IEKSTQYMAKRRIGALISVARDTGMDDYIETGIPLNAKISSQLLINIFIPNTPLHDGAVIIKGNEIASAASYLPLSDSPFLSKELGTRHRAALGISEVTDSITIVVSEETGGISLTKGGELF,not soluble
17,SSKRKRKRSVQEGENPDDGVRGSPPEDYRLGQVASSLFRGEHHSRGGTGRLASLFSSLEPQIQPVYVPVPKQTIKKTKRNEEEESTSQIERPLSQEPAKKVKAKKKHTNAEKKLADRESALASADLEEEIHQKQGQKRKNSQPGVKVADRKILDDTEDTVVSQRKKIQINQEEERLKNERTVFVGNLPVTCNKKKLKSFFKEYGQIESVRFRSLIPAEGTLSKKLAAIKRKIHPDQKNINAYVVFKEESAATQALKRNGAQIADGFRIRVDLASETSSRDKRSVFVGNLPYKVEESAIEKHFLDCGSIMAVRIVRDKMTGIGKGFGYVLFENTDSVHLALKLNNSELMGRKLRVMRSVNKEKFKQQNSNPRLKNVSKPKQGLNFTSKTAEGHPKSLFIGEKAVLLKTKKKGQKKSGRPKKQRKQK,soluble
18,MGHHHHHHSHMSEPGKGDDCLELESSMAESRLRAPDLGVSRCLGKCQKNSPGARKHPFSGKSFYLDLPAGKNLQFLTGAIQQLGGVIEGFLSKEVSYIVSSRREVKAESSGKSHRGCPSPSPSEVRVETSAMVDPKGSHPRPSRKPVDSVPLSRGKELLQKAIRNQVSWGKMGQSRWSPA,not soluble
19,MTHIIIDGDACPVVDSIIDLTTETGIFVTIIRSFSHFSNQLYPPHVSTLYVDDGPDAVDYKIVQLSTKDDIVVTQDYGLASLLVDKVLIVMHHNGKIYNSKNIQQLLDKRYINAQIRKQGGRHKGPPPFTKQDQKVFEQSLLKVIHRIKELDLEHHHHHH,soluble
20,NPYDVVVIGGGPGGYVASIKAAQLGMKTACVEKRGALGGTCLNVGCIPSKALLHATHLYHDAHANFARYGLMGGEGVTMDSAKMQQQKERAVKGLTGGVEYLFKKNKVTYYKGEGSFETAHSIRVNGLDGKQEMLETKKTIIATGSEPTELPFLPFDEKVVLSSTGALALPRVPKTMVVIGGGVIGLELGSVWARLGAEVTVVEFAPRCAPTLDEDVTNALVGALAKNEKMKFMTSTKVVGGTNNGDSVSLEVEGKNGKRETVTCEALLVSVGRRPFTGGLGLDKINVAKNERGFVKIGDHFETSIPDVYAIGDVVDKGPMLAHKAEDEGVACAEILAGKPGHVNYGVIPAVIYTMPEVASVGKSEDELKKEGVAYKVGKFPFNANSRAKAVSTEDGFVKVLVDKATDRILGVHIVCTTAGELIGEACLAMEYGASSEDVGRTCHAHPTMSEALKEACMALFAKTINF,soluble
21,MANLATVERYVSAAAQRGADMVVFPEATMQGFGTGRLDRVAERIDGPFATRICQLARELNIVIVVGMFSPADTHDGKQRINNVALIAHPDSVREYRKIHTYDAFGFKESDTVRPGNQLVTFPVGDVTCGIAVCYDVRFPQQFIDLARLGAEVIVLPASWADGEGKLEQWRTLTAARALDSTSYIVACDQAVAEDERAPGAPTGVGHSAVVTPDGRRIAEAGTGEELFMVNVNRDLVRRTREAIPVLADAGYNQNGE,not soluble
22,MSLSPPLTLNPEQAVAVASIFEHIHHYQCFLLQGVTGSGKTEVYLHVIAKILEQGKQVLVLVPEIGLTPQLLSRFTARFNHPITVLHSNLNESERQIAWQLAKENKVKMVIGTRSAVFTPLPNLGLIIIDEEHDSSLKQMEGVRYSARDTALMRAHLANIPIILGTATPSLETIHNCKQKKYNLLRLTHKAASTTPLHYQLIDLRSQMVQHGLALPTLKIIENHLLQQNQVLVFINRRGFAPVLLCHQCGWMVDCKACDSHLTLHKQAGQMICHHCGLTQRIPLFCNNCQSKELIPVGSGTQRIYEFLSHQFPDTNVLRIDRDEVRKKNSLNSHLDKINKGEAQLIIGTQMLAKGHHFPRLSLVVVVDADAGFYNQDFRAIEHLGQLLTQVSGRAGRAEHPGQVLIQTYLPDHPLLNLLIQHGYDEFANALLISRQEAEMPPFQFLAVIRAQGRTVSKVDQFLKATKDQIQAHPLTVLGPAPAPLPRKANQHRMQLLIKSPSRKVLKSSLTQLREWLTMNKLSNGIRWNVDVDPMDLSEGHHHHHH,not soluble
